PMC12851022 (2025)

Assays:
[1] = target: T1, VHL (Homo sapiens, UniProt P40337); assay: FRET
[2] = target: T1, VHL; assay: Alpha assay

T1 sequence (P40337 whole entry): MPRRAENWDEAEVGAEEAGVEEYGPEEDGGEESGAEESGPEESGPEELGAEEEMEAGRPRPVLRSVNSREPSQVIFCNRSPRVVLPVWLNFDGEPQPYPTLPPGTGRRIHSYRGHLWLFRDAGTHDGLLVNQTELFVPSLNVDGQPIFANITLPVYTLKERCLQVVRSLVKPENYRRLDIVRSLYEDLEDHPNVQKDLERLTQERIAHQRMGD

B1: USP39 (protein)
chain: MSGRSKRESRGSTRGKRESESRGSSGRVKRERDREREPEAASSRGSPVRVKREFEPASAREAPASVVPFVRVKREREVDEDSEPEREVRAKNGRVDSEDRRSRHCPYLDTINRSVLDFDFEKLCSISLSHINAYACLVCGKYFQGRGLKSHAYIHSVQFSHHVFLNLHTLKFYCLPDNYEIIDSSLEDITYVLKPTFTKQQIANLDKQAKLSRAYDGTTYLPGIVGLNNIKANDYANAVLQALSNVPPLRNYFLEEDNYKNIKRPPGDIMFLLVQRFGELMRKLWNPRNFKAHVSPHEMLQAVVLCSKKTFQITKQGDGVDFLSWFLNALHSALGGTKKKKKTIVTDVFQGSMRIFTKKLPHPDLPAEEKEQLLHNDEYQETMVESTFMYLTLDLPTAPLYKDEKEQLIIPQVPLFNILAKFNGITEKEYKTYKENFLKRFQLTKLPPYLIFCIKRFTKNNFFVEKNPTIVNFPITNVDLREYLSEEVQAVHKNTTYDLIANIVHDGKPSEGSYRIHVLHHGTGKWYELQDLQVTDILPQMITLSEAYIQIWKRRDNDETNQQGA
modifications: USP39_PROTAC_V1
- Kd [1]: 12 nM
- Kd [2]: 232 nM
